Data published in publication PMC1616947 (Nucleic Acids Research, 2006).

Molecular target: the molecule itself
Assay: SEC + AUC

B1: MutLΔC20 deletion mutant (domain or fragment, Escherichia coli, UniProt P23367 1-595, looked up)
chain: MPIQVLPPQLANQIAAGEVVERPASVVKELVENSLDAGATRIDIDIERGGAKLIRIRDNGCGIKKDELALALARHATSKIASLDDLEAIISLGFRGEALASISSVSRLTLTSRTAEQQEAWQAYAEGRDMNVTVKPAAHPVGTTLEVLDLFYNTPARRKFLRTEKTEFNHIDEIIRRIALARFDVTINLSHNGKIVRQYRAVPEGGQKERRLGAICGTAFLEQALAIEWQHGDLTLRGWVADPNHTTPALAEIQYCYVNGRMMRDRLINHAIRQACEDKLGADQQPAFVLYLEIDPHQVDVNVHPAKHEVRFHQSRLVHDFIYQGVLSVLQQQLETPLPLDDEPQPAPRSIPENRVAAGRNHFAEPAAREPVAPRYTPAPASGSRPAAPWPNAQPGYQKQQGEVYRQLLQTPAPMQKLKAPEPQEPALAANSQSFGRVLTIVHSDCALLERDGNISLLSLPVAERWLRQAQLTPGEAPVCAQPLLIPLRLKVSAEEKSALEKAQSALAELGIDFQSDAQHVTIRAVPLPLRQQNLQILIPELIGYLAKQSVFEPGNIAQWIARNLMSEHAQWSMAQAITLLADVERLCPQLVKTP
stoichiometry N: 2
